From patent US20230002493A1 (ORIONIS BIOSCIENCES, published 2023)
Where a chain is given by its changes, count along the chain named. Numbers in names are those of the source.

Key:
[1] = target: T1, recombinant PD-L1 extracellular domain fused to the mouse IgG1 Fc domain (SinoBiologicals) (human; mouse, UniProt Q9NZQ7 19-238); experiment: BLI (Octet), recombinant PD-L1-mouse Fc on the sensor, VHH dilution series
T1 construct: extracellular domain; also called human PD-L1-mouse Fc; PD-L1-mouse Fc protein; not shown: mouse IgG1 Fc domain
Method: (§1) Affinities of resulting variants were measured using the bio-layer interferometry technology on an Octet Red 96 instrument (ForteBio). In brief, recombinant PD-L1 extracellular domain fused to the mouse IgG1 Fc domain (SinoBiologicals) was immobilized on anti-murine IgG quantitation (AMQ) biosensors (ForteBio). Loaded sensors were incubated with a serial dilution of PD-L1 VHH variant, association and dissociation monitored and kinetic parameters were calculated using the Octet Data Analysis software v10 (ForteBio).
The isomerization motif in all these variants was removed by the D54G mutation. Variants were produced as described above and affinity measured on an Octet instrument using the recombinant PD-L1-mouse Fc protein.

[2] = target: T1, recombinant PD-L1 extracellular domain …; experiment: BLI (Octet Red 96), PD-L1-mouse IgG1 Fc on AMQ biosensors, VHH dilution series
Method: as §1

[3] = target: T1, recombinant PD-L1 extracellular domain …; experiment: BLI (Octet Red 96); ratio of the printed KDs, 2LIG99 over variant
Method: as §1

[4] = target: T1, recombinant PD-L1 extracellular domain …; experiment: BLI (Octet Red 96), PD-L1-mouse IgG1 Fc on AMQ biosensors, VHH dilution series; remark: listed apart in the source
Method: as §1
(§2) The aspartic acid at position 1 was included to avoid the risk of pyroglutamate formation. […] Resulting mutants were purified and affinities measured as described in Example 1.

[5] = target: T1, recombinant PD-L1 extracellular domain …; experiment: BLI (Octet), PD-L1-mouse Fc on the sensor, VHH dilution series, as described above
Method: as §1

[6] = target: T1, recombinant PD-L1 extracellular domain …; experiment: BLI (Octet Red 96); ratio of the printed KDs, variant over 2LIG189
Method: as §1, §2

T1 sequence (Q9NZQ7 19-238): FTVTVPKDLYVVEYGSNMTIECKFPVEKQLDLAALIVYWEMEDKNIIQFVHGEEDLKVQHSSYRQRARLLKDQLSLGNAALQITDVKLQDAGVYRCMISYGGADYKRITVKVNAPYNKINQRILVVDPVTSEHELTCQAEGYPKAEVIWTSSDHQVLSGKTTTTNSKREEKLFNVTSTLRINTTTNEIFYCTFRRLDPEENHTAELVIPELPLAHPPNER

B1: 2LIG99 VHH (VHH)
VHH: QVQLQESGGGLVQAGGSLRLSCTASGTIFSINRMDWFRQAPGKQRELVALITSDGTPAYADSAKGRFTISRDNTKKTVSLQMNSLKPEDTAVYYCHVSSGVYNYWGQGTQVTVSS
notes: Parental PD-L1 VHH; stands here as the molecule on which the mutations are counted; also called wild-type 2LIG99; not shown: C-terminal His-tag
- Kd [1]: 0.719 nM
- koff [1]: 0.000721 s⁻¹
- kon [1]: 1e+06 M⁻¹ s⁻¹
- Kd [2]: 0.282 nM
- koff [2]: 0.000447 s⁻¹
- kon [2]: 1.58e+06 M⁻¹ s⁻¹

B2: 2LIG99_D55K (VHH)
VHH: B1 VHH with D54K
- Ratio KD [3]: 0.61
- Kd [2]: 0.459 nM
- koff [2]: 0.0007 s⁻¹
- kon [2]: 1.53e+06 M⁻¹ s⁻¹

B3: 2LIG99_D55T (VHH)
VHH: B1 VHH with D54T
- Ratio KD [3]: 0.19
- Kd [2]: 1.48 nM
- koff [2]: 0.000436 s⁻¹
- kon [2]: 295000 M⁻¹ s⁻¹

B4: 2LIG99_G56R (VHH)
VHH: B1 VHH with G55R
- Ratio KD [3]: 0.28
- Kd [2]: 1.01 nM
- koff [2]: 0.000761 s⁻¹
- kon [2]: 753000 M⁻¹ s⁻¹

B5: 2LIG99_OPT1 (VHH)
VHH: B1 VHH with Q1D, Q5V, A14P, T74S, K86R, Q110L
- Ratio KD [3]: 0.35
- Kd [2]: 0.794 nM
- koff [2]: 0.000704 s⁻¹
- kon [2]: 886000 M⁻¹ s⁻¹

B6: 2LIG99_OPT4 (VHH)
VHH: B1 VHH with Q1D, Q5V, A14P, T74S, K76N, K86R, Q110L
- Ratio KD [3]: 0.62
- Kd [2]: 0.452 nM
- koff [2]: 0.000304 s⁻¹
- kon [2]: 671000 M⁻¹ s⁻¹

B7: 2LIG99_OPT5 (VHH)
VHH: B1 VHH with Q1D, Q5V, A14P, T74S, S79Y, K86R, Q110L
- Ratio KD [3]: 2.27
- Kd [2]: 0.124 nM
- koff [2]: 7.55e-05 s⁻¹
- kon [2]: 607000 M⁻¹ s⁻¹

B8: 2LIG99_OPT_D54G (VHH)
VHH: B1 VHH with Q1D, Q5V, A14P, D54G, T74S, K86R, Q110L
- Kd [1]: 0.553 nM
- koff [1]: 0.000856 s⁻¹
- kon [1]: 1.55e+06 M⁻¹ s⁻¹

B9: 2LIG99_OPT_D54G_A63V (VHH)
VHH: B1 VHH with Q1D, Q5V, A14P, D54G, A63V, T74S, K86R, Q110L
- Kd [1]: 1.16 nM
- koff [1]: 0.00151 s⁻¹
- kon [1]: 1.3e+06 M⁻¹ s⁻¹

B10: P-1660: 2LIG99_OPT2 (Q1D_Q5V_A14P_T23A_T74S_K86R_Q110L) (VHH)
VHH: B1 VHH with Q1D, Q5V, A14P, T23A, T74S, K86R, Q110L
notes: not shown: C-terminal His-tag
- Ratio KD [3]: 0.19
- Kd [2]: 1.48 nM
- koff [2]: 0.000658 s⁻¹
- kon [2]: 445000 M⁻¹ s⁻¹

B11: P-1664: 2LIG99_OPT6 (Q1D_Q5V_A14P_T23A_A63V_T74S_K76N_S79Y_K86R_Q110L) (VHH)
VHH: B1 VHH with Q1D, Q5V, A14P, T23A, A63V, T74S, K76N, S79Y, K86R, Q110L
notes: not shown: C-terminal His-tag
- Ratio KD [3]: 0.03
- Kd [2]: 10.3 nM
- koff [2]: 0.00124 s⁻¹
- kon [2]: 121000 M⁻¹ s⁻¹

B12: P-2051: 2LIG99_OPT_D54G_K76N (Q1D_Q5V_A14P_D54G_T74S_K76N_K86R_Q110L) (VHH)
VHH: B1 VHH with Q1D, Q5V, A14P, D54G, T74S, K76N, K86R, Q110L
notes: not shown: C-terminal His-tag ('produced as described above')
- Kd [1]: 0.358 nM
- koff [1]: 0.000599 s⁻¹
- kon [1]: 1.67e+06 M⁻¹ s⁻¹

B13: P-2052: 2LIG99_OPT_D54G_S79Y (Q1D_Q5V_A14P_D54G_T74S_S79Y_K86R_Q110L) (VHH)
VHH: B1 VHH with Q1D, Q5V, A14P, D54G, T74S, S79Y, K86R, Q110L
notes: as for B12
- Kd [1]: 0.182 nM
- koff [1]: 0.000279 s⁻¹
- kon [1]: 1.54e+06 M⁻¹ s⁻¹

B14: P-2053: 2LIG99_OPT_D54G_A63V_K76N (Q1D_Q5V_A14P_D54G_A63V_T74S_K76N_K86R_Q110L) (VHH)
VHH: B1 VHH with Q1D, Q5V, A14P, D54G, A63V, T74S, K76N, K86R, Q110L
notes: as for B12
- Kd [1]: 0.602 nM
- koff [1]: 0.00112 s⁻¹
- kon [1]: 1.87e+06 M⁻¹ s⁻¹

B15: P-2054: 2LIG99_OPT_D54G_A63V_S79Y (Q1D_Q5V_A14P_D54G_A63V_T74S_K86R_S97Y_Q110L) (VHH)
VHH: B1 VHH with Q1D, Q5V, A14P, D54G, A63V, T74S, S79Y, K86R, Q110L
notes: The mutation list prints S97Y where the name prints S79Y; not shown: C-terminal His-tag ('produced as described above')
- Kd [1]: 0.427 nM
- koff [1]: 0.000779 s⁻¹
- kon [1]: 1.83e+06 M⁻¹ s⁻¹

B16: P-2055: 2LIG99_OPT_D54G_K76N_S79Y (Q1D_Q5V_A14P_D54G_T74S_K76N_K86R_S79Y_Q110L) (VHH)
VHH: B1 VHH with Q1D, Q5V, A14P, D54G, T74S, K76N, S79Y, K86R, Q110L
notes: as for B12
- Kd [1]: 0.0445 nM
- koff [1]: 5.52e-05 s⁻¹
- kon [1]: 1.24e+06 M⁻¹ s⁻¹

B17: P-2056: 2LIG99_OPT_D54G_A63V_K76N_S79Y (Q1D_Q5V_A14P_D54G_A63V_T74S_K76N_K86R_S79Y_Q110L) (VHH)
VHH: B1 VHH with Q1D, Q5V, A14P, D54G, A63V, T74S, K76N, S79Y, K86R, Q110L
notes: as for B12
- Kd [1]: 0.735 nM
- koff [1]: 0.000677 s⁻¹
- kon [1]: 921000 M⁻¹ s⁻¹

B18: 2LIG189 VHH (VHH, not shown: small tags and cut ends)
VHH: QVQLQESGGGLVQAGGSLRLSCAASGKIFSGNDMGWYRQAPGKQRELVGIITSGGITDYADAVKGRFTISRDNAKNMMYLQMNSLKPEDTAVYYCNMRDRTIWWGQGTQVTVSS
notes: Parental PD-L1 VHH; stands here as the molecule on which the mutations are counted; also called wild-type 2LIG189
- Kd [4]: 0.791 nM
- koff [4]: 0.000148 s⁻¹
- kon [4]: 187000 M⁻¹ s⁻¹
- Kd [5]: 5.41 nM
- koff [5]: 0.00131 s⁻¹
- kon [5]: 243000 M⁻¹ s⁻¹

B19: 2LIG189_N32H (VHH)
VHH: B18 VHH with N32H
- Ratio KD [6]: 2.28
- Kd [4]: 1.81 nM
- koff [4]: 0.000446 s⁻¹
- kon [4]: 247000 M⁻¹ s⁻¹

B20: 2LIG189_N32I (VHH)
VHH: B18 VHH with N32I
- Ratio KD [6]: 8.23
- Kd [4]: 6.51 nM
- koff [4]: 0.000872 s⁻¹
- kon [4]: 134000 M⁻¹ s⁻¹

B21: 2LIG189_N32L (VHH)
VHH: B18 VHH with N32L
- Ratio KD [6]: 2.04
- Kd [4]: 1.62 nM
- koff [4]: 0.000195 s⁻¹
- kon [4]: 121000 M⁻¹ s⁻¹

B22: 2LIG189_N32S (VHH)
VHH: B18 VHH with N32S
- Ratio KD [6]: 2.27
- Kd [4]: 1.8 nM
- koff [4]: 0.000292 s⁻¹
- kon [4]: 163000 M⁻¹ s⁻¹

B23: 2LIG189_N32T (VHH)
VHH: B18 VHH with N32T
- Ratio KD [6]: 7.97
- Kd [4]: 6.31 nM
- koff [4]: 0.00104 s⁻¹
- kon [4]: 164000 M⁻¹ s⁻¹

B24: 2LIG189_N32V (VHH)
VHH: B18 VHH with N32V
- Ratio KD [6]: 3.82
- Kd [4]: 3.02 nM
- koff [4]: 0.0009 s⁻¹
- kon [4]: 298000 M⁻¹ s⁻¹

B25: 2LIG189_N32Y (VHH)
VHH: B18 VHH with N32Y
- Ratio KD [6]: 2.58
- Kd [4]: 2.04 nM
- koff [4]: 0.000629 s⁻¹
- kon [4]: 308000 M⁻¹ s⁻¹

B26: 2LIG189_OPT1 (VHH)
VHH: B18 VHH with Q1D, Q5V, A14P, A74S, K86R, Q109L
- Ratio KD [6]: 8.75
- Kd [4]: 6.92 nM
- koff [4]: 0.000497 s⁻¹
- kon [4]: 71800 M⁻¹ s⁻¹

B27: 2LIG189_OPT2 (VHH)
VHH: B18 VHH with Q1D, Q5V, A14P, A74S, M77T, K86R, Q109L
- Ratio KD [6]: 1.62
- Kd [4]: 1.28 nM
- koff [4]: 0.000299 s⁻¹
- kon [4]: 234000 M⁻¹ s⁻¹

B28: 2LIG189_OPT3 (VHH)
VHH: B18 VHH with Q1D, Q5V, A14P, A74S, M78V, K86R, Q109L
- Ratio KD [6]: 6.18
- Kd [4]: 4.89 nM
- koff [4]: 0.000942 s⁻¹
- kon [4]: 193000 M⁻¹ s⁻¹

B29: 2LIG189_OPT4 (VHH)
VHH: B18 VHH with Q1D, Q5V, A14P, A74S, M77T, M78V, K86R, Q109L
- Ratio KD [6]: 2.19
- Kd [4]: 1.74 nM
- koff [4]: 0.000301 s⁻¹
- kon [4]: 174000 M⁻¹ s⁻¹

B30: 2LIG189_OPT_D33H (VHH)
VHH: B18 VHH with Q1D, Q5V, A14P, D33H, A74S, M77T, M78V, K86R, Q109L
- Kd [5]: 0.324 nM
- koff [5]: 0.000145 s⁻¹
- kon [5]: 446000 M⁻¹ s⁻¹

B31: 2LIG189_OPT_N32R (VHH)
VHH: B18 VHH with Q1D, Q5V, A14P, N32R, A74S, M77T, M78V, K86R, Q109L
- Kd [5]: 1.94 nM
- koff [5]: 0.000731 s⁻¹
- kon [5]: 377000 M⁻¹ s⁻¹

B32: 2LIG189_OPT_N32R_M97I (VHH)
VHH: B18 VHH with Q1D, Q5V, A14P, N32R, A74S, M77T, M78V, K86R, M97I, Q109L
- Kd [5]: 2.32 nM
- koff [5]: 0.000457 s⁻¹
- kon [5]: 197000 M⁻¹ s⁻¹

B33: 2LIG189_OPT_N32R_M97V (VHH)
VHH: B18 VHH with Q1D, Q5V, A14P, N32R, A74S, M77T, M78V, K86R, M97V, Q109L
- Kd [5]: 3.38 nM
- koff [5]: 0.00056 s⁻¹
- kon [5]: 166000 M⁻¹ s⁻¹

B34: SEQ ID NO: 73 (2LIG189 humanization variant with deamidation and oxidation risk sites removed) (VHH)
VHH: B18 VHH with Q1D, Q5V, A14P, D33H, A74S, M77T, M78V, K86R, M97I, Q109L
notes: also called 2LIG189 second wave variant
- Kd [5]: 0.555 nM
- koff [5]: 0.000329 s⁻¹
- kon [5]: 593000 M⁻¹ s⁻¹
